Experimental data reported in patent US20180021429A1, “ANTICANCER AGENTS OR ANTIMETASTATIC AGENTS USING FSTL1 AND COMBINATION DRUG THEREOF” (PHARMA FOODS INTERNATIONAL CO., LTD., priority 2015, published 2018).

Columns and labels:
mouse melanoma B16-F10 [1] = assay: Mouse melanoma B16-F10 model, subcutaneous and intravenous transplantation (Example 22); format: in vivo; conditions: intraperitoneal 10 mg/kg on days 3 and 6; FIG. 110
Description: (§1) The drug efficacy of the anti-FSTL1 antibody was evaluated according to Examples 17 to 20 using other cancer-bearing models of C57BL/6 mice of the same strain as in Snail-positive tumor bone metastasis models. The “mouse melanoma B16-F10” is a parent line of the cell line forced to express Snail, which was transplanted in the bone metastasis models used in the preceding tests.
(§2) 1. Experiment Group (n=5) • 1. Mouse melanoma B16-F10+control IgG (anti-DNP mAb) • 2. Mouse melanoma B16-F10+anti-FSTL1 mAb (#6-55)
(§3) • Day 0: transplantation of tumor cells (1×10^6 cells subcutaneously & 1×10^6 cells intravenously) • Day 3: intraperitoneal administration of the antibody (first dose, corresponding to 200 μg/mouse=10 mg/kg) • Day 6: intraperitoneal administration of the antibody (second dose, corresponding to 200 μg/mouse=10 mg/kg) • Day 15 various immunological assays
• Effects on the growth of subcutaneous tumor (calculation of tumor volume by tumor size measurement): measured 6, 10, and 14 days after tumor implantation (FIG. 110A) • Effects on weight loss (FIG. 110B)

mouse lymphoma EL4 = assay: In vivo, mouse lymphoma EL4 (Example 23); conditions: intraperitoneal 10 mg/kg on days 3 and 6, vs control antibody
Description: The drug efficacy of the anti-FSTL1 antibody was evaluated according to Examples 17 to 20 using mouse lymphoma EL4, which is a cancer type having enhanced FSTL1 expression.
1. Experiment Group (n=5) • 1. Mouse lymphoma EL4+control IgG (anti-DNP mAb) • 2. Mouse lymphoma EL4+anti-FSTL1 mAb (#6-55)
as §3, with “15:” for “15”
• Effects on the growth of subcutaneous tumor (calculation of tumor volume by tumor size measurement): measured 3, 6, and 10 days after tumor implantation

human FSTL1 = biological target: T1, human FSTL1 (Homo sapiens, UniProt Q12841); assay: ELISA binding activity of purified antibody against human FSTL1; conditions: FIG. 95B
T1 construct: AAA linker + 10xHis (C); made in house; host or cells: Expi293 (transient expression; purified from culture supernatant on HisPur Cobalt Resin)
T1 sequence (Q12841 with tags, fused parts or gaps): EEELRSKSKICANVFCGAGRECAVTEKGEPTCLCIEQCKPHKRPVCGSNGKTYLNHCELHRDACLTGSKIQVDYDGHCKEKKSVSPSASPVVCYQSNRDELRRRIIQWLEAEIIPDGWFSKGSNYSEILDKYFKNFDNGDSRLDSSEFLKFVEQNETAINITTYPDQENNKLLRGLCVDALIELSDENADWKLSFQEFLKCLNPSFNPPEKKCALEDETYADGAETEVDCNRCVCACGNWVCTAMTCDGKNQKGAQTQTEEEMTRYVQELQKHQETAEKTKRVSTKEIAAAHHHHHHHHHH
Description: The reactivity of the obtained antibody clones described above with FSTL1 was evaluated by ELISA under the following conditions.
(Table 2 ELISA Conditions for Binding Activity Evaluation of Purified Antibody)
Antibodies used: anti-dinitrophenyl (DNP) antibody (negative control), #5-2, #5-3, #5-8, #5-10, #5-43, #6-55, and #7-34
FIGS. 96 and 97 show results of evaluating binding activity under the condition of Table 3 as to clones differing in screening and antibody purification timings.
(Table 3 ELISA Conditions for Binding Activity Evaluation of Purified Antibody)

mouse melanoma B16-F10 [2] = assay: In vivo, mouse melanoma B16-F10 (Example 22)
Description: as §1, §2, §3
• Effects on the growth of subcutaneous tumor (calculation of tumor volume by tumor size measurement): measured 6, 10, and 14 days after tumor implantation (FIG. 46A) • Effects on weight loss (FIG. 46B)
• Effects on the growth of subcutaneous tumor (calculation of tumor volume by tumor size measurement): measured 6, 10, and 14 days after tumor implantation (FIG. 78A) • Effects on weight loss (FIG. 78B)

[3] = tested on: various human tumor cells; assay: Proliferative capacity and invasive capacity of various human tumor cells (Example 26); format: cell-based; conditions: antibody 5 μg/ml, particularly in a highly metastatic tumor cell line highly expressing Snail, FIG. 114A
Description: Specifically, the influence of the anti-FSTL1 antibody on proliferative capacity and invasive capacity was studied using various human tumor cells, regardless of the presence or absence of the expression of Snail or FSTL1. Specifically, the anti-FSTL1 antibody (#6-55, 5 μg/ml) or a control antibody (aHema: mouse chimeric anti-hemagglutinin antibody, 5 μg/ml) was added to systems in which a pancreatic cancer cell line Panc1 (ATCC #CRL-1469), Panc1-snail+ which is a Panc1 cell line forced to express Snail, a pancreatic cancer cell line MIAPaCa (ATCC #CRL-1420), a bone metastatic breast cancer cell line MDA231 (ATCC #HTB-26), and a melanoma cell line Hs294T (ATCC IHTB-140) were each cultured at 1×10^5 cells. After culture for 3 days, the number of cells per culture system was counted to evaluate the proliferative capacity of the cells. The cells (5×10^4 cells) after the counting were further inoculated to Matrigel-coated transwell chamber (Corning Inc. #354480) and cultured for 4 hours. Then, the membranes were removed, and stained and fixed with Crystal Violet fixative. Then, the number of cells that permeated the membranes was counted under a microscope to evaluate the invasive capacity of the cells.

B1: #6-55: chicken-mouse chimeric anti-FSTL1 antibody clone; variable regions SEQ ID NO: 783 (light), 785 (heavy) (antibody, V domains shown)
VH: AVTLDESGGGLQTPGGALSLVCKGSGFTFTSVTMQWVRQAPGKGLEWVASVCSGSSTYYAPAVKGRATISRDNGQSTVRLQLSNLRPEDTGTYYCAKIAGRARWSCTSAAYNIDAWGHGTEVIVSS
VL: ASTQPSSVSAIPGETVKITCSGGGNNYGWYQQRSPGSAPVTVIYYNDNRPSNIPSRFSGSTSGSTSTLTITGVQADDEAIYYCGSWDSNTDSGIFGAGTTLTVL
modifications: mouse constant regions
- subcutaneous tumor growth (mouse melanoma B16-F10 [1]): strongly suppressed
- weight loss (mouse melanoma B16-F10 [1]): suppressive activity against weight loss was also exhibited
- subcutaneous tumor growth (mouse lymphoma EL4): strongly suppressed
- binding activity against human FSTL1 (human FSTL1): specific and equivalently strong binding activity
- weight loss (mouse melanoma B16-F10 [2]; intraperitoneal 10 mg/kg on days 3 and 6): suppressive activity against weight loss was also exhibited
- subcutaneous tumor growth (mouse melanoma B16-F10 [2]; intraperitoneal 10 mg/kg on days 3 and 6, vs control antibody): strongly suppressed
- proliferative capacity of tumor cells ([3]; 3 days): strongly suppressed
- invasive capacity of tumor cells ([3]; Matrigel-coated transwell, 4 hours): strongly suppressed
